Where a chain is given by its changes, count along the chain named. Like-named read-outs stand apart in the source and are kept apart here.

From patent US20190185564A1 (AGENCY FOR SCIENCE TECHNOLOGY AND RESEARCH, published 2019) come the findings set out here.

Test [1] has as its target T1, Mouse Tim-3-Fc (mouse, UniProt Q8VIM0).
T1 construct: coupled to human Fc; ELISA coating antigen for the cross-reactivity test; also called mouse TIM-3 coupled to human Fc
Briefly: ELISA on coated mouse TIM-3-Fc, absorbance 450-670 nm. (In an ELISA, binding on a coated surface is turned into a signal by an enzyme label.)
Description: (§1) After a small-scale induction in HB2151 cells, Fab antibodies were screened by ELISA. […] After extensive washes in PBS Tween-20, Fab-containing supernatants from induction plates were transferred into the ELISA plates in the presence of 7% milk in PBS. After 90 minutes at room temperature under agitation and extensive washes, a goat anti-human Fab antibody coupled to HRP was added. One hour later, plates were washed and TMB substrate added. The reaction was stopped with 1M HCl and optical density measured at 450 nm with a reference at 670 nm. Antibodies giving an absorbance >0.1 were selected as positive.

Test [2] concerns the target T1, Mouse Tim-3-Fc. The description is as above. The source holds these as a separate data set.
Description: as §1

B1: anti-TIM-3 antibody clone G6 (antibody, V domains shown)
VH: QVQLQESGPGLVKPSGTLSLTCAVSGGSISSSNWWSWVRQPPGKGLEWIGEIYHSGSTNYNPSLKSRVTISVDKSKNQFSLKLSSVTAADTAVYYCARVVAVAGTVDYWGQGTLVTVSS
VL: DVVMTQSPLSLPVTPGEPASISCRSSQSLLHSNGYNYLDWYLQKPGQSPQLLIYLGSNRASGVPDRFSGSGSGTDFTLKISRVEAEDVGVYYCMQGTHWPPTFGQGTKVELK
notes: Screened as Fab, and SPR was recorded for 'each candidate Fab'
As to B1, the binding result in the test with Mouse Tim-3-Fc [1] is “no binding”.

B2: anti-TIM-3 antibody clone A11 (antibody, V domains shown)
VH: QVQLQQWGAGLLKPSETLSLTCAVYGGSFSGYYWSWIRQPPGKGLEWIGEINHSGSTNYNPSLKSRVTISVDTSKNQFSLKLSSVTAADTAVYYCARGYVAGFDYWGQGTLVTVSS
VL: QSVVTQPPSVSAAPGQKVTISCSGSSSNIGNNYVSWYQQLPGTAPKLLIYGNNWRPSGIPDRFSGSKSGTSATLAISGLQTGDEADYYCETWDSSLSAGVFGGGTKLTVL
notes: as for B1
In the case of B2, the binding result with Mouse Tim-3-Fc [2] is “no binding”.

B3: anti-TIM-3 antibody clone G7 (antibody, V domains shown)
VH: EVQLVQSGAEVKKPGASVKVSCKASGYTFTSYYMHWVRQAPGQGLEWMGIINPSGGSTSYAQKFQGRVTMTRDTSTSTVYMELSSLRSEDTAVYYCARDQYSSGWYYYGMDVWGQGTTVTVSS
VL: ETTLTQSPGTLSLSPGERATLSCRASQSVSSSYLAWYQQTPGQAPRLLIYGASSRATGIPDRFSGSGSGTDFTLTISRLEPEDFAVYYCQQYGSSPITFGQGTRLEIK
notes: as for B1
Consider B3, for which, in the test with Mouse Tim-3-Fc [1], the binding result is listed as “no binding”.

B4: anti-TIM-3 antibody clone G9 (antibody, V domains shown)
VH: B3 VH with E1Q, V5Q, Q100L, S103Y, W105F
VL: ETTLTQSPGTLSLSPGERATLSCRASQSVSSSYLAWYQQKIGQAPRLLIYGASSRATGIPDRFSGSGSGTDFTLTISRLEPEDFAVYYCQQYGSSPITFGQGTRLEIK
notes: as for B1
Consider B4, for which the binding result in the test with Mouse Tim-3-Fc [1] is given as “no binding”.

B5: anti-TIM-3 antibody clone B10 (antibody, V domains shown)
VH: QVQLQESGPGLVKASETLSLTCTVSGGSIGSSDYYWGWIRQPPGKGLEWIGSIYYSGSTYYNPSLKSRVTMSVDTPNNQFSLKLSSVTAADTAVYYCARGEHRGEFDYWGQGTLVTVSS
VL: EIVLTQSPATLSFSPGERATLSCRASQSVGSYLAWYQQRPGQAPRPLIYDATNRATGIPTRFSGSGSGTDFTLTISSLEPEDFATYYCQHRRTFGRGTKLEIK
notes: as for B1
Regarding B5, the binding result in the test with Mouse Tim-3-Fc [1] was “no binding”.

B6: anti-TIM-3 antibody clone A3 (antibody, V domains shown)
VH: QVQLVQSGAEVKKPGASVKVSCKASGYTFTSYYMHWVRQAPGQGLEWMGIINPSGGSTSYAQKFQGRVTMTRDTSTSTVYMELSSLRSEDTAVYYCARSPGVVTALFDYWGQGTLVTVSS
VL: DIQMTQSPSFMSASVGDRVTITCRASQDIGSYLAWYQQKPGKAPKLLIYAASTLQSGVPSRFSGSGSGTDFTLTINSLQPEDFATYYCQQSYSSPPTFGPGTTLEIK
notes: Isolated from a human phage library and screened as Fab; SPR was recorded for 'each candidate Fab'
As to B6, the binding result with Mouse Tim-3-Fc [1] is recorded as “no binding”.
